Results as given in US20230406951A1 (Pfizer, published 2023).
Where a chain is given by its changes, count along the chain named.

T1: human TNFR2 (human, UniProt P20333 23-461)
T1 construct: expressed on the surface of CHO cells; also called HuTNFR2; TNFRSF1B
T1 sequence: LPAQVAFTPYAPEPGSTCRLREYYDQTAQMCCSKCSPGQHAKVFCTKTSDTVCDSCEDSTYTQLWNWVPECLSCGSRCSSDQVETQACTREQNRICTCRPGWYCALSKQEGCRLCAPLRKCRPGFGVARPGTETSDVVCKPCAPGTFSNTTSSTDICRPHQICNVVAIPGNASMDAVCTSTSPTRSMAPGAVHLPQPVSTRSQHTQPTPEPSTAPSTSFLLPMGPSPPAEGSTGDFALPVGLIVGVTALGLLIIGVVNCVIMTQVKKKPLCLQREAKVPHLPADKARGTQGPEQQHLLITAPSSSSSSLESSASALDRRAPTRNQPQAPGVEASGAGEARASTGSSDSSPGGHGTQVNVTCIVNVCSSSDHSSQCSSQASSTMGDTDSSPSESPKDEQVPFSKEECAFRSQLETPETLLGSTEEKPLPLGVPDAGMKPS

B1: IgG 1918 (antibody, name in Kabat numbering, V domains shown)
VH: QVQLVQSGAEVKKPGASVKVSCKVSGFSFPSSGVDWVRQAPGQGLEWLGVTRGEGSTHYNQKFQGRVTITKDTSKSTVYMELSSLRSEDTAVYYCASGEWDEGFVYWGQGTLVTVSS
VL: DIQLTQSPSFLSASVGDRVTITCKASQNVGTAVAWYQQKPGKAPKLLIYAASTLQSGVPSRFSGSGSGTEFTLTISSLQPEDFATYYCQQYNSYPFGGGTKVEIKR
notes: IgG
B2: IgG 1931 (antibody, name in Kabat numbering, V domains shown)
VH: B1 VH with R52W, E54V, W100S, D101T
VL: B1 VL with N92Y, Y94T
notes: IgG
B3: IgG 1921 (antibody, name in Kabat numbering, V domains shown)
VH: B1 VH with R52H, E54S
VL: B1 VL
notes: IgG
B4: IgG 1990 (antibody, name in Kabat numbering, V domains shown)
VH: B1 VH with R52H, E54S, W100H
VL: B1 VL
notes: IgG
B5: IgG 1973 (antibody, name in Kabat numbering, V domains shown)
VH: B1 VH with R52K, E54Q, W100S, D101T
VL: B1 VL
notes: IgG
B6: IgG 1926 (antibody, name in Kabat numbering, V domains shown)
VH: B1 VH with R52K, E54Q
VL: B1 VL with N92Y, Y94T
notes: IgG
B7: IgG 1979 (antibody, name in Kabat numbering, V domains shown)
VH: B1 VH with W100R
VL: B1 VL
notes: IgG
B8: IgG 1978 (antibody, name in Kabat numbering, V domains shown)
VH: B1 VH with W100H
VL: B1 VL
notes: IgG
B9: IgG 1989 (antibody, name in Kabat numbering, V domains shown)
VH: B1 VH with R52H, E54S, W100S, D101T
VL: B1 VL
notes: IgG
B10: IgG 1987 (antibody, name in Kabat numbering, V domains shown)
VH: B1 VH with R52L, E54H, W100R
VL: B1 VL
notes: IgG
B11: IgG 1977 (antibody, name in Kabat numbering, V domains shown)
VH: B1 VH with W100S, D101T
VL: B1 VL
notes: IgG
B12: IgG 1925 (antibody, name in Kabat numbering, V domains shown)
VH: B1 VH with R52W, E54V, W100Q
VL: B1 VL
notes: IgG
B13: IgG 1924 (antibody, name in Kabat numbering, V domains shown)
VH: B1 VH with R52W, E54V, W100R
VL: B1 VL
notes: IgG
B14: IgG 1934 (antibody, name in Kabat numbering, V domains shown)
VH: B1 VH with R52W, E54V, W100Q
VL: B1 VL with N92Y, Y94T
notes: IgG
B15: IgG 1982 (antibody, name in Kabat numbering, V domains shown)
VH: B1 VH with R52F, G53Q, W100H
VL: B1 VL
notes: IgG
B16: IgG 1933 (antibody, name in Kabat numbering, V domains shown)
VH: B1 VH with R52W, E54V, W100R
VL: B1 VL with N92Y, Y94T
notes: IgG
B17: IgG 1922 (antibody, name in Kabat numbering, V domains shown)
VH: B1 VH with R52W, E54V, W100S, D101T
VL: B1 VL
notes: IgG
B18: IgG 1980 (antibody, name in Kabat numbering, V domains shown)
VH: B1 VH with W100Q
VL: B1 VL
notes: IgG
B19: IgG 1927 (antibody, name in Kabat numbering, V domains shown)
VH: B1 VH
VL: B1 VL with N92Y, Y94T
notes: IgG
B20: IgG 1932 (antibody, name in Kabat numbering, V domains shown)
VH: B1 VH with R52W, E54V, W100H
VL: B1 VL with N92Y, Y94T
notes: IgG
B21: TetraFab 2175 (antibody)
heavy: QVQLVQSGAEVKKPGASVKVSCKVSGFSFPSSGVDWVRQAPGQGLEWLGVTWGVGSTHYNQKFQGRVTITKDTSKSTVYMELSSLRSEDTAVYYCASGESTEGFVYWGQGTLVTVSSASTKGPSVFPLAPSSKSTSGGTAALGCLVKDYFPEPVTVSWNSGALTSGVHTFPAVLQSSGLYSLSSVVTVPSSSLGTQTYICNVNHKPSNTKVDKKVEPKSCGGGGSQVQLVQSGAEVKKPGASVKVSCKVSGFSFPSSGVDWVRQAPGQGLEWLGVTWGVGSTHYNQKFQGRVTITKDTSKSTVYMELSSLRSEDTAVYYCASGESTEGFVYWGQGTLVTVSSASTKGPSVFPLAPSSKSTSGGTAALGCLVKDYFPEPVTVSWNSGALTSGVHTFPAVLQSSGLYSLSSVVTVPSSSLGTQTYICNVNHKPSNTKVDKKVEPKSCDKTHTCPPCPAPEAAGAPSVFLFPPKPKDTLMISRTPEVTCVVVDVSHEDPEVKFNWYVDGVEVHNAKTKPREEQYNSTYRVVSVLTVLHQDWLNGKEYKCKVSNKALPAPIEKTISKAKGQPREPQVYTLPPSREEMTKNQVSLTCLVKGFYPSDIAVEWESNGQPENNYKTTPPVLDSDGSFFLYSKLTVDKSRWQQGNVFSCSVMHEALHNHYTQKSLSLSPGK
light: DIQLTQSPSFLSASVGDRVTITCKASQNVGTAVAWYQQKPGKAPKLLIYAASTLQSGVPSRFSGSGSGTEFTLTISSLQPEDFATYYCLQYSSYPLTFGGGTKVEIKRTVAAPSVFIFPPSDEQLKSGTASVVCLLNNFYPREAKVQWKVDNALQSGNSQESVTEQDSKDSTYSLSSTLTLSKADYEKHKVYACEVTHQGLSSPVTKSFNRGEC
notes: TetraFab
B22: TetraFab 2192 (antibody)
heavy: B21 heavy with W52L, V54H, S100H, T101D, W277L, V279H, S325H, T326D
light: B21 light
notes: TetraFab
B23: TetraFab 2176 (antibody)
heavy: B21 heavy with S100H, T101D, S325H, T326D
light: B21 light
notes: TetraFab
B24: TetraFab 2182 (antibody)
heavy: B21 heavy with W52K, V54Q, S100Q, T101D, W277K, V279Q, S325Q, T326D
light: B21 light
notes: TetraFab
B25: TetraFab 2185 (antibody)
heavy: B21 heavy with W52R, V54E, S100R, T101D, W277R, V279E, S325R, T326D
light: B21 light
notes: TetraFab
B26: TetraFab 2179 (antibody)
heavy: B21 heavy with W52K, V54Q, W277K, V279Q
light: B21 light
notes: TetraFab
B27: TetraFab 2191 (antibody)
heavy: B21 heavy with W52L, V54H, W277L, V279H
light: B21 light
notes: TetraFab

The binders below were run against T1, human TNFR2 (assay: binding to human TNFR2 CHO cells).

Binder | binding result
B1 | no binding
B2 | no binding
B3 | no binding
B4 | no binding
B5 | no binding
B6 | no binding
B7 | no binding
B8 | no binding
B9 | no binding
B10 | no binding
B11 | no binding
B12 | no binding
B13 | no binding
B14 | no binding
B15 | no binding
B16 | no binding
B17 | no binding
B18 | no binding
B19 | no binding
B20 | no binding
B21 | no binding
B22 | no binding
B23 | no binding
B24 | no binding
B25 | no binding
B26 | no binding
B27 | no binding
